We go through four molecules from US20250092158A1.

In the assay the target is human Quiescin Sulfhydryl Oxidase 1 (QSOX1) (human) (UniProt O00391). In words: oxygen electrode assay of QSOX1 (25 nM) on DTT (200 uM), antibody varied, Morrison tight-binding fit.

A value given as a limit tells only on which side of the number the result lay.

As usually defined, the Ki is a dissociation constant, usually derived from enzyme kinetics or from competition with a known ligand.

Sequence of UniProt O00391 (O00391 33-546): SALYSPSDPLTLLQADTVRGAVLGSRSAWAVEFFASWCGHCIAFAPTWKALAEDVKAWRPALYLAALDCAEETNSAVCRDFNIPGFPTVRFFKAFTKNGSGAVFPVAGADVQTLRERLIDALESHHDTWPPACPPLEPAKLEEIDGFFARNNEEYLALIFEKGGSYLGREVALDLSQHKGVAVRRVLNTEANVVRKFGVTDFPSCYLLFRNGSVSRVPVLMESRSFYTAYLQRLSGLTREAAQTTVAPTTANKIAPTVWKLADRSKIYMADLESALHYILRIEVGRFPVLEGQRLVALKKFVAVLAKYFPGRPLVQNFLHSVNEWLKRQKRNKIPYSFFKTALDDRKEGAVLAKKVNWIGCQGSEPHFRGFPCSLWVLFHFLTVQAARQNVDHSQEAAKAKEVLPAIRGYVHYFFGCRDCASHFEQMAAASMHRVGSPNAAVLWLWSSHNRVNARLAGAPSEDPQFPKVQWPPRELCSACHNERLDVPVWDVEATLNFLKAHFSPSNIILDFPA

B1: humanized anti-QSOX1 antibody H3K4 (antibody, human IgG1, kappa, V domains shown)
VH: QVQLVESGGGLVQPGGSLRLSCSVSGFSLTGYGVNWVRQAPGKGLEWLGMIWGDGRTDYADSVKGRFTISRDNSKNTLYLQMSSLRAEDTAVYYCASDYYGSGSFAYWGQGTLVTVSS
VL: DIVMTQSPDSLAVSLGERATINCKASQDVSTAVAWYQQKPGQPPKLLIHSASYRYTGVPDRFSGSGSGTDFTLTISSLQAEDVAVYYCQQHYSIPLTFGQGTRLEIKR
In the case of B1, the Ki is less than 1 nM.

B2: humanized anti-QSOX1 antibody H2bK4 (antibody, human IgG1, kappa, V domains shown)
VH: QITLKESGPTLVKPTQTLTLTCTVSGFSLTGYGVNWIRQPPGKALEWLGMIWGDGRTDYSPSLKSRLTITKDTSKNQVVLTMTNMDPVDTATYYCASDYYGSGSFAYWGRGTLVTVSS
VL: B1 VL
In turn, B2 had a Ki of less than 1 nM.

B3: humanized anti-QSOX1 antibody H3newK2 (antibody, human IgG1, kappa, V domains shown)
VH: QVQLVESGGGLVQPGRSLRLSCTVSGFSLTGYGVNWFRQAPGKGLEWLGMIWGDGRTDYTASVKGRFTISRDGSKSIAYLQMNSLKTEDTAVYYCASDYYGSGSFAYWGQGTLVTVSS
VL: DIVMTQTPLSLSVTPGQPASISCKASQDVSTAVAWYLQKPGQPPQLLIHSASYRYTGVPDRFSGSGSGTDFTLKISRVEAEDVGVYYCQQHYSIPLTFGPGTKVDIKR
For B3, the inhibition constant (Ki) was less than 1 nM.

B4: humanized anti-QSOX1 antibody H3newK4 (antibody, human IgG1, kappa, V domains shown)
VH: B3 VH
VL: B1 VL
In turn, B4 gave a Ki of less than 1 nM.
